Data: the supplement of paper PMC12764529
± gives the half width of the 95% confidence interval.

What was measured:
[1] = folding stability dG unfold from trypsin proteolysis; higher = more stable
In short: (§1)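 Sequencing followed digestion of designed mini-proteins with trypsin and chymotrypsin, each at 11 concentrations in threefold dilutions together with a no-protease condition. The mini-proteins were under 80 residues, had no cysteine, sat in a PA-tagged cDNA display construct, and were kept only if AlphaFold2 dimer inter-PAE was above 15. From the counts, Bayesian fitting gave K50, and unfolding free energy was derived against a sequence-predicted unfolded-state K50 and a shared folded-state K50, per protease or combined.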

[2] = folding stability dG unfold from chymotrypsin proteolysis; higher = more stable
In short: as §1

[3] = folding stability dG unfold (combined trypsin and chymotrypsin); higher = more stable
In short: as §1

Sequence	folding stability dG unfold [1] [kcal/mol]	folding stability dG unfold [2] [kcal/mol]	folding stability dG unfold [3] [kcal/mol]
SAGGSAGGSAEPPRYLVIELEVERSPEEIAEELRRRLGIERVEVEYDPETERLRVRVVVRLPSAGGSAGGSA [r18_275_TrROS_Hall]	1.96 ± 0.048	3.37 ± 0.047	2.88 ± 0.11
SAGGSAGGSAEPVRLVVVTPGFPDGPPIPVEELEALLEAEDVTVVDPFTIPELGYVVLLVEASAGGSAGGSA [r18_466_TrMRF]	1.4 ± 0.048	0.728 ± 0.092	1.07 ± 0.1
SAGGSAGGSAETFTLPGGYTITVEPTEGGVKVTITHPDGSKGEVELGPTEPLVVDPDGATILASAGGSAGGS [r12_281_TrMRF]	1.49 ± 0.079	1.66 ± 0.093	1.66 ± 0.1
SAGGSAGGSAEVEIEFVSYDPSTGRLVRKRVKLKLLPDPKGGPVEVVEVEVDPGGPVPAGASAGGSAGGSAG [r3_397_TrMRF]	1.91 ± 0.053	2.08 ± 0.046	2.11 ± 0.12
SAGGSAGGSAEVEIEVDKETKELYIKDSNGKVKKIKVKVVKVEVKKPVVTLPKEELSEEELKSAGGSAGGSA [r18_59_TrROS_Hall]	0.818 ± 0.084	-0.357 ± 0.17	0.258 ± 0.33
SAGGSAGGSAEVFIVKFSDPAKLKAFMEKLGLSYEKGDNPKITNPEEFLKNLPLVKNVVVTKKSAGGSAGGS [r12_571_JUSTAS]	0.286 ± 0.12	0.54 ± 0.14	0.423 ± 0.057
SAGGSAGGSAEVPKPGEAKPVLVTSSFTIPLPNGGTLEITTVDLVDVATGTVTPRVEVRSLDSAGGSAGGSA [r18_123_TrMRF]	-0.786 ± 0.33	-0.991 ± 0.88	< -1
SAGGSAGGSAFTIHDLKLNKVEVHPDGTVTYHLEVTLPSGEKLKVVVLVDPRKPSLATFYFSSAGGSAGGSA [r18_97_TrMRF]	2.31 ± 0.2	3.31 ± 0.057	2.94 ± 0.13
SAGGSAGGSAFVWNPDTGTFIQLDPNDGTIEVFEIENDNDGKLEPIGTVEVDPDDPDKGTITSAGGSAGGSA [r18_448_TrROS]	1.75 ± 0.13	1.23 ± 0.069	1.5 ± 0.1
SAGGSAGGSAGAEIKIKKVEKKDSKLKLILPDGRIYEVKKDKKKSNSIKKIKIKKLPPLKSAGGSAGGSAGG [r17_173_JUSTAS]	0.113 ± 0.34	-0.181 ± 0.59	-0.0549 ± 0.47
SAGGSAGGSAGAKVKVFKVRAEVKLTRTADGELVAEVTEVEIEEVEVEVRPPPPPPLPPASAGGSAGGSAGG [r11_381_TrROS_Hall]	1.67 ± 0.24	3.11 ± 0.14	2.92 ± 0.35
SAGGSAGGSAGAPPGSTVTVTYTVTTTVTDRVPDGPGFTNPHTLTSTVTTTVNVGHPDLVSAGGSAGGSAGG [r11_734_TrMRF]	0.833 ± 0.058	0.00274 ± 0.17	0.585 ± 0.12
SAGGSAGGSAGAPTVKLTFTVTRTETKTETLPDGTTKTETKTETRTVTLTLAPGETITVTSAGGSAGGSAGG [r11_174_TrROS_Hall]	3.39 ± 0.084	4.27 ± 0.077	3.98 ± 0.11
SAGGSAGGSAGASLKEELGFAEVLSRSPTPDTEPLLLKHPEGGELVTVEVDAATAVEWLESAGGSAGGSAGG [r11_630_JUSTAS]	0.343 ± 0.091	0.424 ± 0.17	0.354 ± 0.24
SAGGSAGGSAGASPTAPAVTVEVKTEEVPNNDLLKTTTTTYFPGTGTTVTTETILPPGLGSAGGSAGGSAGG [r11_746_JUSTAS]	0.187 ± 0.053	-0.269 ± 0.086	-0.00225 ± 0.12
SAGGSAGGSAGATISPDGYKIVVTNADGEKVTLTFDSLEEAKAALEALLPPGARVFIEKVSAGGSAGGSAGG [r11_983_TrROS_Hall]	0.529 ± 0.035	2.009 ± 0.011	1.61 ± 0.031
SAGGSAGGSAGDDGDKKPEVKVKVKIEPTIIPSPNGELMLMWTLEIEYPGNGEKREFTFMSAGGSAGGSAGG [r17_59_TrROS]	1.33 ± 0.071	1.92 ± 0.13	1.58 ± 0.17
SAGGSAGGSAGDENEKPKPKMQMKMIQIKFPPEDLPELAEEFGIDSVHIMPNGSLFIMVYSAGGSAGGSAGG [r11_64_TrROS]	1.07 ± 0.11	1.48 ± 0.1	1.36 ± 0.18

Sequence	folding stability dG unfold [1] [kcal/mol]	folding stability dG unfold [2] [kcal/mol]	folding stability dG unfold [3] [kcal/mol]
SAGGSAGGSAGDEWITIWFLFPSPEQAKDIADPLASNGLNIDVETHRMPDGNYWVNITIPSAGGSAGGSAGG [r11_677_TrROS]	2.21 ± 0.092	3.34 ± 0.089	2.9 ± 0.11
SAGGSAGGSAGDGMIEVKVEFERLFFDENGNVTKKEKVDEIIKVPPVTIDTSTGKLTPLPSAGGSAGGSAGG [r17_413_JUSTAS]	0.261 ± 0.051	0.229 ± 0.021	0.284 ± 0.073
SAGGSAGGSAGDLLKEALEEAKKAGIKTATITVEVDGKLYTLTVKLEPKPPPKEVKVEKKSAGGSAGGSAGG [r17_475_TrROS_Hall]	-0.977 ± 0.51	0.814 ± 0.17	0.526 ± 0.38
SAGGSAGGSAGDNYVMITHTIPFPPGEPLEIKIPPGAKIDDIDPERDPGNGTITVSIWFRSAGGSAGGSAGG [r11_701_TrROS]	0.491 ± 0.24	0.879 ± 0.17	0.73 ± 0.25
SAGGSAGGSAGDPVLTVTLLDDNHPVTLTYHPGEKTVTVSVYPLKSGKVLGTVTVPASELSAGGSAGGSAGG [r11_231_TrMRF]	-1.45 ± 0.71	0.37 ± 0.13	-0.0506 ± 0.12
SAGGSAGGSAGDWIKFEYTFKWNFFDPDGDLLMNMTVRVTIEIPIPPVPKPVKPSPNDDNSAGGSAGGSAGG [r17_325_TrROS]	3.52 ± 0.13	5.4 ± 0.15	5.34 ± 0.22
SAGGSAGGSAGEEKETLTLVLPLEDMSPEEIAKLLEAAGYKVTVEEKDGLLVVKIERKPPSAGGSAGGSAGG [r11_707_TrROS_Hall]	2.57 ± 0.08	2.855 ± 0.017	2.77 ± 0.065
SAGGSAGGSAGEFEIIIPPGVAEERPELLEEIRDRFKPLGLEVEVEYIPGEGYVRVKVKGSAGGSAGGSAGG [r11_357_TrMRF]	1.36 ± 0.061	1.64 ± 0.036	1.55 ± 0.11
SAGGSAGGSAGEFELLSVEYFPPIGRVRVAYRRGDLVLVVDFFNPENPEIRPVSLSDELGSAGGSAGGSAGG [r17_145_TrMRF]	2.64 ± 0.067	2.48 ± 0.057	2.59 ± 0.18
SAGGSAGGSAGEFEPVPVLTLPGLDDREVRVVLFKDPPLVLLEVEGAPYVLPAEELLRLASAGGSAGGSAGG [r11_370_TrMRF]	-0.19 ± 0.09	1.26 ± 0.13	0.856 ± 0.12
SAGGSAGGSAGEIENPSLLSQIVPRKVKVTTEIRKLPNGSYETVTTVTYGSTTTTTTSSGATSAGGSAGGSA [r18_335_JUSTAS]	0.163 ± 0.048	-0.256 ± 0.15	0.0269 ± 0.096
SAGGSAGGSAGEIVEVDGKLYIRVRTKDGEWKLIEMSADEIASLPAENVEEVEIVDPKDLSAGGSAGGSAGG [r11_779_TrROS_Hall]	2.6 ± 0.1	3.16 ± 0.075	3.08 ± 0.11
SAGGSAGGSAGELSLEEIKKLAPDETAVVKLPPSPETIVITVSTNPNGTLKIEIKRYPPGSAGGSAGGSAGG [r11_13_JUSTAS]	0.566 ± 0.037	0.657 ± 0.03	0.674 ± 0.1
SAGGSAGGSAGELTVTVTVLLEDGTAVKIEARFELDENGNLHLEVKVEVVKLPELSPEDLSAGGSAGGSAGG [r11_728_TrROS_Hall]	3.4 ± 0.43	2.25 ± 0.2	2.74 ± 0.32
SAGGSAGGSAGEPEIEIEVEERDGELVLRARVRDRETGEEYEVVVRVRPDGPIEITEIRPSAGGSAGGSAGG [r17_113_TrROS_Hall]	3.11 ± 0.13	2.55 ± 0.13	2.72 ± 0.13
SAGGSAGGSAGEPEYVRVRIRVRRRVRNKETGKWEEKEVELTLVFPSKEEALKALEELGLSAGGSAGGSAGG [r11_984_TrROS_Hall]	3.99 ± 0.083	4.049 ± 0.037	4.02 ± 0.051
SAGGSAGGSAGEPKLILVEVEGYPDPESNLVYVEFPNGDIATFAVDSAAPDQPVLVLVNPSAGGSAGGSAGG [r11_621_TrMRF]	0.378 ± 0.044	-0.0185 ± 0.065	0.28 ± 0.045
